Consider 1 molecule from paper PMC13681993 (2026).

By Kd is commonly meant the concentration at which binding is half-saturated.

Assay [1] addresses T1, EGFR C-tail Y1016/Y1138 980-1210 (Homo sapiens, UniProt P00533).
T1 chain: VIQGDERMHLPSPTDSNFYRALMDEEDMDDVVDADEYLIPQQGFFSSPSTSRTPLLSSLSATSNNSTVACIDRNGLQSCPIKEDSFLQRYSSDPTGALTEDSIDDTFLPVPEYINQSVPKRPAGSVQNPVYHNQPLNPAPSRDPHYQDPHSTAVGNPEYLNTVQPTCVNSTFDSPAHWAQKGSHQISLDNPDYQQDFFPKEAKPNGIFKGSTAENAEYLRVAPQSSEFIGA
The experiment in a line: BLI. Background: BLI is a label-free optical method that tracks binding on a fibre tip over time.

For assay [2], the target named is T2, EGFR C-tail Y1016/Y1092 980-1210 (Homo sapiens, UniProt P00533).
T2 chain: T1 chain
The experiment in a line: BLI.

B1: PLCγ1 tandem SH2 N-SH2-C-SH2 (protein)
chain: WFHGKLGAGRDGRHIAERLLTEYCIETGAPDGSFLVRESETFVGDYTLSFWRNGKVQHCRIHSRQDAGTPKFFLTDNLVFDSLYDLITHYQQVPLRCNEFEMRLSEPVPQTNAHESKEWYHASLTRAQAEHMLMRVPRDGAFLVRKRNEPNSYAISFRAEGKIKHCRVQQEGQTVMLGNSEFDSLVDLISYYEKHPLYRKMKLRYPI
For B1, the Kd in assay [1] was 0.0634 µM; in assay [2], 0.429 µM.
